Assay results as given in article PMC6155126.

Assays:
PAXX (cleaved) = PAXX (cleaved) (Homo sapiens, UniProt Q9BUH6 1-204); assay: EMSA; 0.5 µM PAXX; EMSA: 50 mM Tris-HCl pH 7.5, 100 mM KCl, 2.5 mM MgCl2, 1 mM DTT, 4% glycerol, 0.05% Triton X-100, 0.1 mg/ml BSA, 10-20 nM DNA, 30 min at 25 °C; 4-5% native PAGE, 0.5x TBE, 4 °C; details: protein: recombinant; tags: GST tag cleaved (PreScission); chain copies: 2; label: 5' IRDye 700 on one strand; 5-nt gap
Pol λ WT = Pol λ WT (Homo sapiens, UniProt Q9UGP5 1-575); assay: EMSA; 40 or 200 nM Pol λ; EMSA: 50 mM Tris-HCl pH 7.5, 100 mM KCl, 2.5 mM MgCl2, 1 mM DTT, 4% glycerol, 0.05% Triton X-100, 0.1 mg/ml BSA, 10-20 nM DNA, 30 min at 25 °C; 4-5% native PAGE, 0.5x TBE, 4 °C; details: protein: recombinant; tags: FLAG; label: 5' IRDye 700 on one strand; 5-nt gap

B1: 5nt-gapped dsDNA 30-mer (dsDNA)
DNA 1: ACTGGCCGTCGTTCTATTGTACTCACTGTGATC
DNA 2: GATCACAGTGAGTAC
DNA 3: AACGACGGCCAGT
binding result (PAXX (cleaved)): no binding
binding result (Pol λ WT): binds
